1 protein from publication PMC9440762 can be followed below.

The data set concerns the target P72509. Briefly: SEC; C-PC dialysed overnight against 8 M urea and 30 mM β-mercaptoethanol, then loaded on Superdex 200 Increase 5/150 in urea-free 75 mM phosphate buffer pH 7.9; partial reassociation during the run. Background: SEC sorts molecules by how far they enter the pores of the column.

B1: C-phycocyanin αβ monomer (heterodimer of the α and β subunits) from Arthrospira platensis (protein)
chain 1: not shown
chain 2: MFDAFTKVVSQADTRGEMLSTAQIDALSQMVAESNKRLDAVNRITSNASTIVSNAARSLFAEQPQLIAPGGNAYTSRRMAACLRDMEIILRYVTYAVFAGDASVLEDRCLNGLRETYLALGTPGSSVAVGVGKMKEAALAIVNDPAGITPGDCSALASEIASYFDRACAAVS
B1: the “yield of the state with the initial hydrodynamic characteristics after renaturation from 8 M urea” value came to 9.6%.
